In one series the target is T1, NaLigE (Novosphingobium aromaticivorans, UniProt Q2G5N2).
T1 construct: gene Saro_2405; recombinant from E. coli; N-terminal His8 tag cut by TEV (SAIAG- left); homodimer
T1 sequence (Q2G5N2 1-279): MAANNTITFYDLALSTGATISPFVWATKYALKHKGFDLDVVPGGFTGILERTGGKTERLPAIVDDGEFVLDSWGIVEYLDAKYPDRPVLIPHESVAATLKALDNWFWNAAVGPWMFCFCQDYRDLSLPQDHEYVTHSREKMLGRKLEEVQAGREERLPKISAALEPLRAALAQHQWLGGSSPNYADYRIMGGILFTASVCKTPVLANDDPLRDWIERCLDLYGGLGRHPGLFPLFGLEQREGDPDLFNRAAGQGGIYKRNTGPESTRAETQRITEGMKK
The series can be described thus: initial rate of GS-HPV formation by HPLC, Michaelis-Menten fit. As to conditions: racemic MPHPV added, concentration counted as β(R); 5 mM GSH, 25 mM Tris-HCl pH 8.0, 25 mM NaCl, 25 °C; per subunit of the homodimer. The class given is biochemical. From the text:
initial rate of GS-HPV formation by HPLC, Michaelis-Menten fit on NaLigE

Another series has as its target T2, NaLigF1 (Novosphingobium aromaticivorans, UniProt Q2G6J3).
T2 construct: gene Saro_2091; recombinant, purified as described previously
T2 sequence (Q2G6J3 11-257 limits assumed): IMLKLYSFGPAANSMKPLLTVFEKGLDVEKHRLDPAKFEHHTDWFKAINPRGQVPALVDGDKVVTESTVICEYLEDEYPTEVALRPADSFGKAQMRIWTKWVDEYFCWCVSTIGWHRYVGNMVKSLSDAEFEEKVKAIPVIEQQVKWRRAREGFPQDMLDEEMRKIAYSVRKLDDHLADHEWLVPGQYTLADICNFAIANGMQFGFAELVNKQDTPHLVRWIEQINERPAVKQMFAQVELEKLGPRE
The series can be described thus: HPLC end-point conversion of MPHPV. The class given is biochemical. The settings on record: β(S)-MPHPV left after BaeA+BaeB reaction on racemic MPHPV; GSH, 25 mM Tris-HCl pH 8.0, 25 mM NaCl, 30 °C.

Substrate in series [1]: COc1cc(C(=O)[C@@H](CO)Oc2ccccc2OC)ccc1O
Kind of series: initial rate of GS-HPV formation by HPLC, Michaelis-Menten fit. As to conditions: racemic MPHPV added, concentration counted as β(R), 5 mM GSH, 25 mM Tris-HCl pH 8.0, 25 mM NaCl, 25 °C, per heterodimer. It counts as biochemical, Novosphingobium aromaticivorans. The text has this: initial rate of GS-HPV formation by HPLC, Michaelis-Menten fit on BaeAB

Results on five molecules are retold here after article PMC6369299, “A heterodimeric glutathione S-transferase that stereospecifically breaks lignin's β(R)-aryl ether bond reveals the diversity of bacterial β-etherases” (The Journal of Biological Chemistry, 2018).

A word on the Km: it is the concentration of substrate that gives half-maximal velocity. The term kcat denotes the maximal rate divided by the concentration of active sites. Broadly, the kcat/Km is the second-order rate constant that governs catalysis at low substrate concentration.

Consider `COc1cc(C(=O)[C@@H](CO)Oc2ccccc2OC)ccc1O` [β(R)-MPHPV], for which the Km on NaLigE came to 7 ± 1 µM.
With `COc1cc(C(=O)[C@H](CO)Oc2ccccc2OC)ccc1O` [β(S)-MPHPV], the “HPLC end-point conversion of MPHPV” value on NaLigF1 is “upon the addition of NaLigF1, the MPHPV was completely converted into GS-HPV and guaiacol”.

B1: BaeAB (Novosphingobium aromaticivorans DSM 12444) (protein)
chain: MDEVSLYHWEPNANSGKPMLALMEKGVPFSSHYIDMLQFDQHKPEYLAINPQGTIPAMTHNGQVLTESTAIMEYVNDRFDGPDLMPADAQDRWRVRWWMKFMDQWLGPSFSMIGWSVFVGPMVRQRDPAELAAAIDRIPLPERRTAWRKAINGDFSESEMAESRRRVGLGIAKLEEELGKRPYVGSNQYSLADINIFNSTYSLPISQPDLAGKDRTPNIMRWLKRVYTREAVKKTWAMGKTDLAHRYGLIMAEIEG
notes: co-expressed in E. coli B834, His8 tag on BaeB cut by TEV leaving SAIAG- linked to Ser2 (Met1 not coded); heterodimer, ~59 kDa by GPC; with Glutathione S-transferase-like protein (beta-etherase subunit BaeB)
With B1, in series [1], the Km amounted to 20 ± 3 µM, the kcat was 2.9 ± 0.3 s⁻¹ and the kcat/Km was determined as 150000 ± 30000 M⁻¹ s⁻¹.

B2: BaeAB (Novosphingobium aromaticivorans DSM 12444; N14A) (protein)
chain: MDEVSLYHWEPNAASGKPMLALMEKGVPFSSHYIDMLQFDQHKPEYLAINPQGTIPAMTHNGQVLTESTAIMEYVNDRFDGPDLMPADAQDRWRVRWWMKFMDQWLGPSFSMIGWSVFVGPMVRQRDPAELAAAIDRIPLPERRTAWRKAINGDFSESEMAESRRRVGLGIAKLEEELGKRPYVGSNQYSLADINIFNSTYSLPISQPDLAGKDRTPNIMRWLKRVYTREAVKKTWAMGKTDLAHRYGLIMAEIEG
notes: as for B1
Consider B2, for which, in series [1], the Km came to 250 ± 60 µM, the kcat was 0.14 ± 0.02 s⁻¹ and the kcat/Km was found to be 500 ± 200 M⁻¹ s⁻¹.

B3: BaeAB (Novosphingobium aromaticivorans DSM 12444; S15A) (protein)
chain: MDEVSLYHWEPNANAGKPMLALMEKGVPFSSHYIDMLQFDQHKPEYLAINPQGTIPAMTHNGQVLTESTAIMEYVNDRFDGPDLMPADAQDRWRVRWWMKFMDQWLGPSFSMIGWSVFVGPMVRQRDPAELAAAIDRIPLPERRTAWRKAINGDFSESEMAESRRRVGLGIAKLEEELGKRPYVGSNQYSLADINIFNSTYSLPISQPDLAGKDRTPNIMRWLKRVYTREAVKKTWAMGKTDLAHRYGLIMAEIEG
notes: as for B1
In the case of B3, in series [1], the Km turned out to be 100 ± 20 µM, the kcat came to 2.4 ± 0.3 s⁻¹ and the kcat/Km was determined as 23000 ± 6000 M⁻¹ s⁻¹.
